The results in this text go back to patent publication US20190055510A1, “WELL PLATE-BASED PERFUSION CULTURE MODEL OF ENDOSTEAL-EXTRACELLULAR MATRIX (ECM)-AND ENDOTHELIAL-MYELOMA INTERACTIONS AND METHODS FOR TESTING PERSONALIZED THERAPEUTICS FOR MULTIPLE MYELOMA” (Hackensack University Medical Center, priority 2016, published 2019).

What all share (format): cell-based, human
Assay [1] has as its system CD138+ PMMCs. Kind of assay: Drug response of CD138+ PMMCs co-cultured with osteoblast (OSB) tissue in 96-well plate-based perfusion culture, viability by flow cytometry. The note with it: cultured with OSBs. Here is the method:
Using the 96-well plate-based culture platform described in Example 2, osteoblasts (OSBs) (hFOB 1.19 cell line) were cultured for 4 days at 20% O2 tension to form an ossified tissue structure. Patient bone marrow mononuclear cells (BMMCs) containing PMMCs, were seeded on the ossified tissue structure and cultured for up to 5 weeks. […] When O2 tension was decreased to 1%, the proliferation rate of PMMCs decreased (FIG. 2C) while their viability was not compromised (data not shown). […] PMMCs also acquired cell adhesion mediated drug resistance (CAM-DR) due to the adhesive interactions with OSBs.
The response of PMMCs to two commonly used drugs to treat MM patients: (1) carfilzomib, a proteasome inhibitor; and (2) melphalan, which is often used to treat newly diagnosed MM patients along with stem-cell transplantation, was evaluated. OSB tissue was cultured for 4 days either at 1 or 20% O2 prior to seeding of PMMCs. After seeding, PMMC-OSB cultures were dosed with either carfilizomib or melphalan. After 24 h, flow cytometry was used to analyze the viability of CD138+PMMCs. […] Dual Inhibition Of Mcl-1 By The Combination Of Carfilzomib and TG02 In Multiple Myeloma, (2013)). […] British journal of haematology 152, 579-592, doi:10.1111/j.1365-2141.2010.08533.x. (2011); Xiang, Y. et al. Monitoring a Nuclear Factor-κB Signature of Drug Resistance in Multiple Myeloma. […]
A general note: In flow cytometry, cells or beads pass a laser one at a time.

The test system of assay [2] is CD138+ PMMCs. Kind of assay: Drug response of CD138+ PMMCs cultured in fibrin. The note with it: in contrast to culture with OSBs (FIG. 3B). How it is done: The response of PMMCs to two commonly used drugs to treat MM patients: (1) carfilzomib, a proteasome inhibitor; and (2) melphalan, which is often used to treat newly diagnosed MM patients along with stem-cell transplantation, was evaluated. OSB tissue was cultured for 4 days either at 1 or 20% O2 prior to seeding of PMMCs. After seeding, PMMC-OSB cultures were dosed with either carfilizomib or melphalan. After 24 h, flow cytometry was used to analyze the viability of CD138+PMMCs. […] Dual Inhibition Of Mcl-1 By The Combination Of Carfilzomib and TG02 In Multiple Myeloma, (2013)). […] British journal of haematology 152, 579-592, doi:10.1111/j.1365-2141.2010.08533.x. (2011); Xiang, Y. et al. Monitoring a Nuclear Factor-κB Signature of Drug Resistance in Multiple Myeloma. Molecular & Cellular Proteomics 10, doi:10.1074/mcp.M110.005520 (2011)).
In this study, fibrin was used to reconstruct extracellular matrix (ECM) niche tissue containing patient bone marrow mononuclear cells (BMMCs). […]

A further assay has as its system 3D-osteocytes (OSTs). Nature of the assay: Continuous PTH treatment of 3D-reconstructed osteocytes, relative gene expression. The note with it: 50 nM PTH for 2 days, compared to no treatment and 2D-OSTs controls (FIG. 4F). The text has this: Cells and biphasic calcium phosphate (BCP) or polystyrene (PS) microbeads in the range of 20-25 μm (i.e, 20 μm, 21 μm, 22 μm, 23 μm, 24 μm and 25 μm) in diameter were assembled into the culture chamber, via forced liquid withdrawal through the PC membrane, to form a close-packed structure (FIG. 1). […] The cells entrapped within the interstitial spaces between the microbeads formed a 3D cellular network by extending and connecting their processes through openings between the microbeads over 2 weeks. […] The observed O2 tension effects are similar to those reported on the osteocytic differentiation of OSBs (Hirao, M. et al. Oxygen tension is an important mediator of the transformation of osteoblasts to osteocytes. Journal of bone and mineral metabolism 25, 266-276, doi:10.1007/s00774-007-0765-9 (2007); Chen, D. et al. HIF-1alpha inhibits Wnt signaling pathway by activating Sost expression in osteoblasts. PloS one 8, e65940, doi:10.1371/journal.pone.0065940 (2013); Clinkenbeard, E. L. et al. Neonatal iron deficiency causes abnormal phosphate metabolism by elevating FGF23 in normal and ADHR mice. Journal of bone and mineral research: the official journal of the American Society for Bone and Mineral Research 29, 361-369, doi:10.1002/jbmr.2049 (2014)).
In order to characterize the regulatory functions of 3D-osteocytes (OSTs) on osteoclastogenesis and osteoblastic development, the effects of continuous parathyroid hormone (PTH) treatment was evaluated.

Turning to `CC(C)C[C@H](NC(=O)[C@H](CCc1ccccc1)NC(=O)CN1CCOCC1)C(=O)N[C@@H](Cc1ccccc1)C(=O)N[C@@H](CC(C)C)C(=O)[C@@]1(C)CO1` [carfilzomib], the “response (viability) of CD138+ PMMCs to carfilzomib” value with CD138+ PMMCs [1] (100 nM carfilzomib, 20% O2, 24 h, flow cytometry (FIG. 3A)) was “significant resistance”.

As to `N[C@@H](Cc1ccc(N(CCCl)CCCl)cc1)C(=O)O` [melphalan], the “response (viability) of CD138+ PMMCs to melphalan” value with CD138+ PMMCs [1] (100 μM melphalan, both 1 and 20% O2, 24 h, flow cytometry (FIG. 3B)) is “highly resistant”. Besides, the “sensitivity of CD138+ PMMCs to melphalan” value in the assay on CD138+ PMMCs [2] is given as “significantly more sensitive”.

B1: parathyroid hormone (protein, UniProt P01270 32-115, looked up)
Parathyroid hormone: SVSEIQLMHNLGKHLNSMERVEWLRKKLQDVHNFVALGAPLAPRDAGSQRPRKKEDNVLVESHEKSLGEADKADVNVLTKAKSQ
modifications: Parathyroid hormone
notes: parathyroid hormone, known to induce OSTs to increase RANKL and decrease OPG and SOST gene expression
Regarding B1, in the assay with 3D-osteocytes (OSTs), the FGF23 gene expression result is “decreased”, the OPG gene expression result is on record as “decreased”, the RANKL gene expression entry is given as “increased” and the SOST gene expression entry is “decreased”.
